According to article PMC2949602, “Genome-wide search identifies Ccnd2 as a direct transcriptional target of Elf5 in mouse mammary gland”:

Tests used:
GST-Elf5 MT2 (R219A) = target: T1, GST-Elf5 MT2 (R219A) (mouse, UniProt Q8VDK3 1-253, R219A); test: EMSA; 20 mM HEPES pH 7.9, 75 mM KCl, 2.5 mM MgCl2, 1 mM EDTA, 0.5 mM DTT, 10% glycerol, 1 ug poly(dA-dT), room temperature; 5% nondenaturing PAGE; conditions: protein: recombinant; label: 32P (Klenow fill-in with dCTP); 5' overhangs 3 nt each end as annealed, filled in by Klenow
T1 sequence: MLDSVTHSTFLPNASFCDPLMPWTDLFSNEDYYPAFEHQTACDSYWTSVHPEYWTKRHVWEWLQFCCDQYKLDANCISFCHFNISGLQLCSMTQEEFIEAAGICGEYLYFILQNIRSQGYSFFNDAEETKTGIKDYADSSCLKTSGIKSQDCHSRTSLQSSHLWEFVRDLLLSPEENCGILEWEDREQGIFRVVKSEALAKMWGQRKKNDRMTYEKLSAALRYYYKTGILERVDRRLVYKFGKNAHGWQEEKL

GST-Elf5 MT1 (K216A) = target: T2, GST-Elf5 MT1 (K216A) (mouse, UniProt Q8VDK3 1-253, K216A); test: as above; conditions: protein: recombinant; label: 32P (Klenow fill-in with dCTP); 5' overhangs 3 nt each end as annealed, filled in by Klenow
T2 sequence: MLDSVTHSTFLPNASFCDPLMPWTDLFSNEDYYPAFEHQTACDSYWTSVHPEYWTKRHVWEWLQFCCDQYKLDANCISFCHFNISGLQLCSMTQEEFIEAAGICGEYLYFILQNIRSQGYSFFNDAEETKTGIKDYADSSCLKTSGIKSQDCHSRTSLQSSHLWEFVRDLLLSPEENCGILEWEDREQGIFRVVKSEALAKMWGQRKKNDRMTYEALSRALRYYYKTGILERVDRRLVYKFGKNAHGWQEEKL

B1: Cyclin D2 upstream region 1 oligo (dsDNA)
DNA 1: CAGATTAGAAAGGAAAAGGATTACAGTAGT
DNA 2: GTGACTACTGTAATCCTTTTCCTTTCTAAT
binding result (GST-Elf5 MT2 (R219A)): no binding | binding result (GST-Elf5 MT1 (K216A)): no binding

B2: Cyclin D2 upstream region 2 oligo (dsDNA)
DNA 1: GAGCCAGCAGGATGCTTGACATTCCAGCTGCTGG
DNA 2: AGGCCAGCAGCTGGAATGTCAAGCATCCTGCTGG
binding result (GST-Elf5 MT2 (R219A)): no binding | binding result (GST-Elf5 MT1 (K216A)): no binding
